{"source": "paper PMC4002904", "binders": {"B1": {"name": "VP16-tagged mEH 353-455 (domain or fragment)", "chain": "DLLTNVMLYWTTGTIISSQRFYKENLGQGWMTQKHERMKVYVPTGFSAFPFELLHTPEKWVRFKYPKLISYSYMVRGGHFAAFEEPELLAQDIRKFLSVLERQ"}}, "key": {"[1]": {"target": "GAL4 DNA-binding domain fused full-length HBSP (Hepatitis B virus)", "assay": "two-hybrid; CheckMate mammalian two-hybrid in Huh-7 cells; pACT-EPHX1(353-455) with pBIND constructs and pG5luc reporter; renilla-normalised firefly luciferase at 48 h, relative to pBIND + pACT set to 1"}, "[2]": {"target": "GAL4 DNA-binding domain fused N terminal 47 amino acids of HBSP (Hepatitis B virus)", "assay": "two-hybrid; CheckMate mammalian two-hybrid in Huh-7 cells; pACT-EPHX1(353-455) with pBIND constructs and pG5luc reporter; renilla-normalised firefly luciferase at 48 h, relative to pBIND + pACT set to 1"}}, "data": [{"binder": "B1", "values": [{"measurement": "fold luciferase activity over the negative control", "setting": "[1]", "result": 9, "unit": "fold"}, {"measurement": "fold luciferase activity over the negative control", "setting": "[2]", "result": 12, "unit": "fold"}]}]}
